Reference: patent US20250352624A1, “SUPEROXIDE DISMUTASE AND USES THEREOF FOR PREVENTING OR TREATING DRY EYE SYNDROME” (GENOFOCUS, INC., priority 2021, published 2025)

How the values were obtained:
[1] = tested on: experimental dry eye (EDE)-induced C57BL/6 mouse model; assay: Tear volume (phenol red thread) in experimental dry eye mice; type: in vivo
Protocol: (§1) To induce experimental dry eye, 7- to 8-week-old C57BL/6 mice (purchased from Damool Science) were injected subcutaneously with scopolamine hydrochloride at 0.5 mg/0.2 ml three times a day under exposure to a ventilating device for 18 hours a day. The humidity was maintained at 30%, and the temperature was maintained at 25° C. The C57BL/6 mice were classified into 7 groups, depending on concentrations of the oral drug to be administered, as shown in Table 6.
(§2) After inducing experimental dry eye in the experimental mice, the drugs prepared in Example 3 were orally administered at 2 μL per dose once a day to the treatment groups (administered at 13:30 every day). In both eyes of all mice, at baseline, day 5, and day 10, tear volume and tear film break-up time were measured and corneal fluorescent staining score was examined. The mice were then sacrificed and tissue analysis was performed. Each group consisted of 6 animals.
Tear volume was determined as follows. A phenol red-impregnated cotton thread was brought into contact for 20 seconds with the conjunctival sac on the lateral canthus side of each mouse, and the length was measured using SMZ microscopy. Then, the measured length was converted into a volume by substituting it into a given formula (see Villareal A L, Farley W, Pflugfelder S C. Effect of topical ophthalmic epinastine and olopatadine on tear volume in mice. Eye Contact Lens. 2006; 32:272-6).

[2] = tested on: experimental dry eye (EDE)-induced C57BL/6 mouse model; assay: Malondialdehyde (MDA) by ELISA in cornea, conjunctiva and lacrimal gland; type: in vivo; settings: for MDA efficacy as compared with 0.05% CsA: 10 mg/kg oral
Protocol: as §1, §2
The corneas, conjunctivas, and lacrimal glands were excised from both eyes (6 eyes) of 3 animals in each group required for tissue analysis. The samples were homogenized in PBS, and then the lysates were centrifuged at 10000×g for 10 minutes at 4° C. The supernatant was taken and the total amount of protein was measured using the Bradford assay. MDA was detected using an ELISA (Enzyme-linked immunosorbent assay) kit (manufactured by Quantikine, R&D Systems, Minneapolis, MN) containing capture and detection antibodies according to the manufacturer's manual. Using ELISA, MDA levels in the cornea, conjunctiva, and lacrimal gland were measured and recorded, respectively.

B1: SodA2: variant Mn-SOD of Bacillus amyloliquefaciens GF423 sodA, Asn73 and Asn136 replaced with Asp, SEQ ID NO: 4; given orally shellac-coated, mixed with dextrin (protein, listed as Bacillus amyloliquefaciens)
chain: MAYKLPELPYAYDALEPHIDKETMTIHHTKHHNTYVTNLNKAIEGSALAEKSVDELVADLNAVPEDIRTAVRDDGGGHANHSLFWTLLSPNGGGEPTGELAEEIKSTFGSFDQFKEKFAAAAAGRFGSGWAWLVVDDGKLEITSTPNQDSPLSEGKTPVLGLDVWEHAYYLNYQNRRPDYISAFWNVVNWDEVARLYSEAK
modifications: shellac coating; dextrin mixture
B1 was tested, and the “tear volume as compared with the 0.05% CsA group” value ([1]; 5 mg/kg oral) was “more significant increase”, the tear volume ([1]; before drug administration, 2.5 mg/kg oral group) was 0.024 ± 0.003 µL and the tear volume ([1]; before drug administration, 5 mg/kg oral group) was 0.022 ± 0.004 µL. It also gave a tear volume ([1]; before drug administration, 10 mg/kg oral group) of 0.023 ± 0.004 µL, a tear volume ([1]; day 5 of administration, 2.5 mg/kg oral once a day) of 0.026 ± 0.005 µL and a tear volume ([1]; day 5 of administration, 5 mg/kg oral once a day) of 0.026 ± 0.005 µL. For the same molecule, the tear volume ([1]; day 5 of administration, 10 mg/kg oral once a day) was 0.026 ± 0.005 µL, the tear volume ([1]; day 10 of administration, 2.5 mg/kg oral once a day) was 0.027 ± 0.005 µL and the tear volume ([1]; day 10 of administration, 5 mg/kg oral once a day) was 0.03 ± 0.005 µL. The tear volume ([1]; day 10 of administration, 10 mg/kg oral once a day) was 0.028 ± 0.004 µL, the “tear volume as compared with the EDE and vehicle groups” value ([1]; days 5 and 10, 0.05% CsA eye drop, SodA2 2.5, 5 and 10 mg/kg oral) was “significant increase” and the “MDA efficacy as compared with 0.05% CsA” value ([2]; conjunctiva) was “superior”. The “MDA efficacy as compared with 0.05% CsA” value ([2]; cornea, lacrimal gland) was “similar”, the “MDA concentration, Conjunctiva” value ([2]; conjunctiva, 2.5 mg/kg oral once a day) was 21.5 ± 9.26 pmol/mL and the “MDA concentration, Conjunctiva” value ([2]; conjunctiva, 5 mg/kg oral once a day) was 19.0 ± 7.17 pmol/mL. For the same molecule, the “MDA concentration, Conjunctiva” value ([2]; conjunctiva, 10 mg/kg oral once a day) was 16.3 ± 9.12 pmol/mL, the “MDA concentration as compared with the EDE and vehicle groups” value ([2]; cornea, conjunctiva and lacrimal gland, CsA and oral SodA2 groups) was “decreased” and the “MDA concentration, Cornea” value ([2]; cornea, 2.5 mg/kg oral once a day) was 22.7 ± 13.8 pmol/mL. For the same molecule, the “MDA concentration, Cornea” value ([2]; cornea, 5 mg/kg oral once a day) was 20.2 ± 14.0 pmol/mL, the “MDA concentration, Cornea” value ([2]; cornea, 10 mg/kg oral once a day) was 18.5 ± 10.6 pmol/mL and the “MDA concentration, Lacrimal gland” value ([2]; lacrimal gland, 2.5 mg/kg oral once a day) was 22.6 ± 7.72 pmol/mL. The “MDA concentration, Lacrimal gland” value ([2]; lacrimal gland, 5 mg/kg oral once a day) was 18.8 ± 11.6 pmol/mL and the “MDA concentration, Lacrimal gland” value ([2]; lacrimal gland, 10 mg/kg oral once a day) was 22.5 ± 11.4 pmol/mL.
